One substance from patent US20080286310A1 can be followed below.

The target of the assay is Translocated intimin receptor Tir of EHEC O157:H7 (enterohemorrhagic Escherichia coli O157:H7) (UniProt Q7DB77). The assay is described as follows: cell-based or functional assay.
UniProt Q7DB77, sequence (Q7DB77 whole entry): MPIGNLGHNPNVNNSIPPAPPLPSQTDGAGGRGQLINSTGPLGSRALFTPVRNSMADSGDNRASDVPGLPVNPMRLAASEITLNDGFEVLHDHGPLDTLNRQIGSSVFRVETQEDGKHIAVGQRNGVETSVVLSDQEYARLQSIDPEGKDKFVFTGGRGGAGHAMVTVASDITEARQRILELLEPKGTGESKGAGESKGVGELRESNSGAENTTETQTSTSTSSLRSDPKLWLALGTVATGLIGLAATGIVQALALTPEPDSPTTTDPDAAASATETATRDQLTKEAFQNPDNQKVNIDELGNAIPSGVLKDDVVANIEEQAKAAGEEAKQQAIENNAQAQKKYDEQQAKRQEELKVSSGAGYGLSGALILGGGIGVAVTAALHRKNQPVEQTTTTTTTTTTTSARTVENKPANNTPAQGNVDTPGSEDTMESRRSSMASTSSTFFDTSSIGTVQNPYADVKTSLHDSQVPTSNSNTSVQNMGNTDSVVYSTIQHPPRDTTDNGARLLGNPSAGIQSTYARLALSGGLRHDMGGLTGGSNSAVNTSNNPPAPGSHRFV

As for “Native intimin of EHEC O157:H7 strain 86-24 (from UniProt P43261 40-934)”, the microcolonies on HeLa cells (percent of cells) is 47%.
